Laboratory results published in the supplement of paper PMC9876800.

Tested on: peptide library, one residue held at a place counted from the S/T acceptor
Assay: relative phosphorylation of the sub-library (ratio to the mean residue at this position); higher = residue favoured
Outline: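 Relative sub-library phosphorylation, a ratio to the mean residue at that position, was obtained by phosphorimaging and densitometry of spots on streptavidin membranes. Before capture, purified recombinant kinases were incubated for 90 min under kinase-specific conditions with 50 μM biotinylated degenerate peptide sub-libraries and 50 μM ATP spiked with γ-32P-ATP. Each sub-library fixed one residue at one position around a central Ser/Thr.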

Chain of CDK19, construct: Full length, human (Q9BWU1 whole entry, looked up): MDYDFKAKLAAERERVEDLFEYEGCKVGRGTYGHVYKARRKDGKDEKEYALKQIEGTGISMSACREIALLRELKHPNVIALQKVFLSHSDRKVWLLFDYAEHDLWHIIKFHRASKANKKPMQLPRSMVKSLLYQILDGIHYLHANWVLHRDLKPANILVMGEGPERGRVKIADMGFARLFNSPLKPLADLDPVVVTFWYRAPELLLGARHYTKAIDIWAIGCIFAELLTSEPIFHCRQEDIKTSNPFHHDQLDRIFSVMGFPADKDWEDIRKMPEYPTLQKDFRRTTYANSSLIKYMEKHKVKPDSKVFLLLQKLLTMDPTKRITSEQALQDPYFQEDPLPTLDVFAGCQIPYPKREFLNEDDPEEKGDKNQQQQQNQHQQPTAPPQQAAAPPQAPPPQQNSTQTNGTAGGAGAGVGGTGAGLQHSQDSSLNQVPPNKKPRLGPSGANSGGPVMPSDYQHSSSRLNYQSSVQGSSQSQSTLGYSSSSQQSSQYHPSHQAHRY
Chain of TSSK6, construct: Full length, human (Q9BXA6 whole entry, looked up): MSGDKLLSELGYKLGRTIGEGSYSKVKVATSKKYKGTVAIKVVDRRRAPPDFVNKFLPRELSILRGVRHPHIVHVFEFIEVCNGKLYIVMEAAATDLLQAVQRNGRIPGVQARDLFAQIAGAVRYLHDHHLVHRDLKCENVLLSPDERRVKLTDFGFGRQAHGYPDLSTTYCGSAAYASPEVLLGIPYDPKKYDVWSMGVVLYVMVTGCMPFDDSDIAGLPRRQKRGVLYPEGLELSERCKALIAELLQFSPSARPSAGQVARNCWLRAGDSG
Chain of MYLK4, construct: Full length, human (Q86YV6 whole entry, looked up): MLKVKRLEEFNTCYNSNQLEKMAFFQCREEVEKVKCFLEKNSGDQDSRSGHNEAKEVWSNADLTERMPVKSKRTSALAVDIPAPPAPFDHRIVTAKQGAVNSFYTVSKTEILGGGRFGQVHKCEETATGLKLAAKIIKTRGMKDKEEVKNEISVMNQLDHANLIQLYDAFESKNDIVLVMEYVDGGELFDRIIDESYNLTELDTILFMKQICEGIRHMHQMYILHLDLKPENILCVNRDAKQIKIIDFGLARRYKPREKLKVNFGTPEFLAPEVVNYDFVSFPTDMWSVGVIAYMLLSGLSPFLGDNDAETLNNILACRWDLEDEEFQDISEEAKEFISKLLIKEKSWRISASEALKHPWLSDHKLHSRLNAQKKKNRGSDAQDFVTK

CDK19, construct: Full length, human (from UniProt Q9BWU1)
relative phosphorylation
Conditions | at +1 | at +2 | at +3 | at +4 | at -1 | at -2 | at -3 | at -4 | at -5
A fixed | 0.247 | 1.28 | 1.17 | 0.978 | 1.14 | 1.69 | 1.08 | 1.05 | 0.905
D fixed | 0.112 | 0.577 | 0.659 | 1.05 | 0.698 | 0.518 | 0.695 | 0.93 | 1.26
E fixed | 0.114 | 0.592 | 0.564 | 0.915 | 0.416 | 0.463 | 0.881 | 1.1 | 1.23
F fixed | 0.193 | 0.915 | 0.784 | 0.971 | 0.947 | 0.465 | 1.18 | 1.22 | 1.42
G fixed | 0.865 | 1.39 | 1.39 | 1.15 | 1.64 | 0.829 | 1.27 | 1.07 | 1.02
H fixed | 0.295 | 1.02 | 1.1 | 0.988 | 0.929 | 0.589 | 0.958 | 0.997 | 1.11
I fixed | 0.378 | 0.721 | 0.633 | 0.857 | 0.238 | 0.935 | 0.602 | 1.01 | 0.863
K fixed | 0.198 | 1.08 | 0.651 | 0.736 | 0.93 | 0.276 | 0.61 | 0.73 | 0.702
L fixed | 0.271 | 1.09 | 0.685 | 0.948 | 0.948 | 1.09 | 0.67 | 1.04 | 0.878
M fixed | 0.32 | 1.22 | 1.1 | 1.1 | 1.5 | 0.922 | 1.39 | 1.07 | 0.895
N fixed | 0.371 | 0.959 | 1.33 | 1.02 | 0.918 | 0.658 | 1.26 | 0.741 | 0.879
P fixed | 11.8 | 0.913 | 2.42 | 1.28 | 1.61 | 5.16 | 1.39 | 0.878 | 0.771
Q fixed | 0.314 | 1.1 | 0.892 | 1.01 | 1 | 0.846 | 1.16 | 0.881 | 0.801
R fixed | 0.186 | 1.51 | 0.934 | 0.919 | 1.53 | 0.393 | 0.674 | 0.875 | 0.844
V fixed | 0.92 | 0.725 | 0.903 | 0.945 | 0.425 | 1.25 | 0.583 | 0.786 | 0.685
W fixed | 0.248 | 1 | 0.881 | 1.24 | 1.01 | 0.498 | 1.45 | 1.34 | 1.08
Y fixed | 0.196 | 0.925 | 0.918 | 0.888 | 1.11 | 0.423 | 1.15 | 1.28 | 1.65
pThr fixed | 0.381 | 0.481 | 0.581 | 0.829 | 0.318 | 0.651 | 0.695 | 0.915 | 0.914
pTyr fixed | 0.344 | 0.83 | 0.733 | 0.902 | 0.505 | 0.427 | 0.718 | 1.03 | 1.12

CDK5, construct: Full length, human (from UniProt Q00535)
relative phosphorylation
Conditions | at +1 | at +2 | at +3 | at +4 | at -1 | at -2 | at -3 | at -4 | at -5
A fixed | 0.423 | 1.13 | 0.791 | 1.07 | 1.16 | 1.08 | 1.05 | 1.15 | 1.22
D fixed | 0.262 | 0.357 | 0.165 | 0.478 | 0.753 | 0.717 | 0.92 | 1.1 | 1.24
E fixed | 0.305 | 0.516 | 0.12 | 0.512 | 0.747 | 0.842 | 1.02 | 0.993 | 1.03
F fixed | 0.227 | 0.765 | 0.485 | 0.679 | 0.557 | 0.765 | 0.65 | 0.801 | 0.925
G fixed | 1.25 | 1.06 | 0.809 | 1.56 | 1.86 | 1.21 | 1.47 | 1.47 | 1.35
H fixed | 0.344 | 1.19 | 3.07 | 1.27 | 0.925 | 1.03 | 1.12 | 1.05 | 1.03
I fixed | 0.261 | 0.87 | 0.444 | 0.828 | 0.346 | 0.646 | 0.742 | 0.642 | 0.63
K fixed | 0.374 | 2.44 | 3.21 | 1.92 | 1.49 | 0.85 | 1.05 | 1.07 | 1.26
L fixed | 0.278 | 0.831 | 0.536 | 0.754 | 0.697 | 0.958 | 0.673 | 0.689 | 0.625
M fixed | 0.382 | 0.869 | 0.542 | 0.967 | 0.995 | 1.01 | 0.894 | 0.86 | 0.725
N fixed | 0.569 | 0.828 | 1.08 | 0.81 | 1.17 | 1.01 | 1.17 | 1 | 0.916
P fixed | 10.5 | 0.464 | 0.63 | 0.829 | 1.49 | 2.71 | 1.8 | 1.61 | 1.45
Q fixed | 0.492 | 0.971 | 0.636 | 1.05 | 1.24 | 0.998 | 1.06 | 0.952 | 0.979
R fixed | 0.373 | 2 | 3.14 | 1.57 | 1.48 | 0.788 | 1.06 | 0.988 | 1.07
V fixed | 0.377 | 0.926 | 0.397 | 0.904 | 0.568 | 0.788 | 0.75 | 0.695 | 0.757
W fixed | 0.285 | 0.763 | 0.463 | 0.957 | 0.722 | 0.786 | 0.811 | 1.1 | 0.766
Y fixed | 0.258 | 1.01 | 0.49 | 0.836 | 0.805 | 0.817 | 0.763 | 0.825 | 1.01
pThr fixed | 0.518 | 0.434 | 0.412 | 0.38 | 0.408 | 0.721 | 0.956 | 0.995 | 0.939
pTyr fixed | 0.513 | 0.44 | 0.344 | 0.453 | 0.548 | 0.748 | 0.822 | 0.835 | 1.01

TSSK6, construct: Full length, human (from UniProt Q9BXA6)
relative phosphorylation
Conditions | at +1 | at +2 | at +3 | at +4 | at -1 | at -2 | at -3 | at -4 | at -5
A fixed | 0.866 | 0.53 | 0.939 | 0.483 | 1.08 | 1.85 | 1.52 | 1.26 | 2.13
D fixed | 0.814 | 0.32 | 1.61 | 0.385 | 0.442 | 0.203 | 0.21 | 0.354 | 0.243
E fixed | 0.876 | 0.568 | 0.702 | 0.265 | 0.603 | 0.328 | 0.335 | 0.562 | 0.234
F fixed | 0.806 | 1.16 | 1.03 | 1.5 | 0.537 | 0.586 | 0.45 | 0.532 | 0.466
G fixed | 0.426 | 0.258 | 0.513 | 0.584 | 0.604 | 0.649 | 0.965 | 1.22 | 0.542
H fixed | 1.23 | 3.4 | 1.89 | 0.696 | 0.82 | 0.868 | 0.848 | 1.32 | 0.607
I fixed | 0.765 | 1.51 | 0.506 | 2.46 | 0.579 | 0.891 | 0.724 | 0.673 | 1.45
K fixed | 1.45 | 0.403 | 1.09 | 0.543 | 2.1 | 3.12 | 2.57 | 2.67 | 0.911
L fixed | 0.925 | 1.38 | 0.645 | 3.38 | 0.657 | 0.416 | 0.61 | 0.721 | 1.71
M fixed | 1.16 | 1.69 | 0.825 | 1.68 | 0.874 | 0.629 | 0.779 | 0.968 | 0.703
N fixed | 1.38 | 0.574 | 1.94 | 0.653 | 0.876 | 0.87 | 0.72 | 0.758 | 0.508
P fixed | 0.155 | 0.299 | 0.204 | 0.591 | 1.83 | 0.446 | 1.35 | 0.544 | 1.46
Q fixed | 1.56 | 0.847 | 1.02 | 0.605 | 1.35 | 1.23 | 0.962 | 0.943 | 0.999
R fixed | 1.83 | 0.499 | 1.25 | 0.506 | 2.4 | 2.11 | 3.07 | 2.22 | 1.93
V fixed | 0.932 | 0.96 | 0.59 | 1.42 | 0.804 | 1.55 | 0.773 | 0.938 | 1.73
W fixed | 0.85 | 1.08 | 1.27 | 0.677 | 0.662 | 0.518 | 0.571 | 0.641 | 0.469
Y fixed | 0.97 | 1.52 | 0.981 | 0.582 | 0.778 | 0.747 | 0.555 | 0.685 | 0.902
pThr fixed | 0.547 | 0.29 | 0.216 | 0.269 | 0.566 | 0.279 | 0.724 | 0.748 | 0.793
pTyr fixed | 0.534 | 0.459 | 0.32 | 0.268 | 0.417 | 0.427 | 0.519 | 0.447 | 0.752

MYLK4, construct: Full length, human (from UniProt Q86YV6)
relative phosphorylation
Conditions | at +1 | at +2 | at +3 | at +4 | at -1 | at -2 | at -3 | at -4 | at -5
A fixed | 0.96 | 0.643 | 0.61 | 0.778 | 0.871 | 0.876 | 0.764 | 1.09 | 0.837
D fixed | 0.566 | 0.833 | 0.854 | 0.974 | 0.639 | 0.272 | 0.32 | 0.437 | 0.41
E fixed | 0.776 | 1.04 | 0.652 | 0.871 | 0.49 | 0.273 | 0.339 | 0.628 | 0.432
F fixed | 1.25 | 1.2 | 1.59 | 1.04 | 0.915 | 0.405 | 0.511 | 0.909 | 1.23
G fixed | 0.814 | 0.588 | 0.715 | 0.858 | 0.533 | 0.468 | 0.544 | 1.01 | 0.735
H fixed | 0.885 | 1.27 | 0.849 | 0.917 | 1.13 | 1.17 | 0.737 | 0.907 | 0.912
I fixed | 1.01 | 1.03 | 1.05 | 1.27 | 0.817 | 0.485 | 0.63 | 1.02 | 1.25
K fixed | 1.28 | 1.39 | 0.718 | 0.807 | 1.8 | 1.76 | 2.19 | 1.89 | 1.65
L fixed | 1.03 | 1.02 | 1.27 | 1.33 | 1.74 | 0.412 | 0.455 | 0.915 | 1.24
M fixed | 1.3 | 0.948 | 1.09 | 0.938 | 1.19 | 0.5 | 0.538 | 0.973 | 1.06
N fixed | 0.921 | 0.946 | 1.01 | 1.05 | 1.34 | 0.588 | 0.498 | 0.826 | 0.694
P fixed | 0.386 | 0.713 | 0.517 | 1.18 | 0.775 | 0.389 | 0.538 | 0.743 | 0.843
Q fixed | 1.27 | 0.949 | 0.659 | 1.04 | 0.889 | 0.725 | 0.631 | 0.925 | 0.749
R fixed | 1.55 | 1.41 | 0.808 | 0.818 | 1.49 | 7.39 | 6.83 | 2.06 | 1.85
V fixed | 0.981 | 1.09 | 0.834 | 0.982 | 0.701 | 0.411 | 0.507 | 1.01 | 1
W fixed | 1.13 | 0.89 | 2.75 | 1.27 | 0.839 | 0.466 | 0.517 | 0.719 | 0.852
Y fixed | 0.888 | 1.04 | 1.04 | 0.883 | 0.848 | 0.416 | 0.449 | 0.936 | 1.26
pThr fixed | 1.88 | 1.98 | 0.701 | 1.09 | 0.794 | 0.666 | 0.917 | 0.92 | 0.692
pTyr fixed | 0.998 | 1.68 | 1.14 | 1.15 | 1.03 | 0.469 | 0.94 | 0.797 | 0.752
